From patent US20040176285A1, “Tip39 polypeptides” (priority 2001, published 2004)
“Also recorded” adds a separate entry of the source. Where a SMILES comes first, the peptide text is derived from it. Where no end group is shown, it is not given here.

How the values were obtained:
PTH1R [1] = target: T1, PTH1R (Homo sapiens, UniProt Q03431); test: Ligand-stimulated cAMP accumulation in HKrk-B7 cells; assay type: cell-based; design: expressed in transfected cells; conditions: HKrk-B7 cells
T1 sequence (Q03431 27-593): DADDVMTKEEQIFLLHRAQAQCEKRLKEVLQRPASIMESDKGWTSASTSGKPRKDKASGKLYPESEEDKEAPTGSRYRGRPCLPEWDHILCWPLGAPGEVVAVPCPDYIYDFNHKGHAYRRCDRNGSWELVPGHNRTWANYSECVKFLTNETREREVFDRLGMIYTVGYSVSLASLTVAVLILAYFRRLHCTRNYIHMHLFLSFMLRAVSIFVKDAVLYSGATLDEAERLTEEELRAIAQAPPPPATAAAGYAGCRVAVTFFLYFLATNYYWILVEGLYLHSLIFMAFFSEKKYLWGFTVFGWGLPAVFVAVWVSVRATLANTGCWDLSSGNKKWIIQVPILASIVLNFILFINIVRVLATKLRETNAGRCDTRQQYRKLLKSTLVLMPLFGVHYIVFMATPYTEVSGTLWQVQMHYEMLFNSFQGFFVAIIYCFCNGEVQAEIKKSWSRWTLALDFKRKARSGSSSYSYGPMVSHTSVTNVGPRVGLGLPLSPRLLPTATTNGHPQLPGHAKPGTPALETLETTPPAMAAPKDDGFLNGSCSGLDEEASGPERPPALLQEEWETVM
Experimental: DMEM, Trypsin/EDTA, and penicillin G/streptomycin and horse serum were from Gibco/BRL, Life Technologies, Gaithersburg, Md. LLC-PK, expressing the recombinant human PTH1R (HKrk-B7 cells) and SaOS-2 cells expressing the wild-type PTH1R endogenously were cultured in DMEM supplemented with 10% heat-inactivated fetal bovine serum, 100 U/ml penicillin, 100 μg/ml streptomycin, as previously described (Gardella, T. J., et al., J. Biol. Chem. 271:19888-19893 (1996); Fukayama, S., et al., Endocrinology 134:1851-1858 (1994)); both cell lines were maintained in a humidified atmosphere containing 95% air and 5% CO2. After seeding, medium was replaced daily, until cells were used for radioligand binding or cAMP accumulation assays.
Na^125I (specific activity: 2,000 Ci/mmol) was purchased from DuPont/NEN, Boston, Mass. Fetal bovine serum, 3-isobutyl-1-methyl-xanthine (IBMX), and BSA were from Sigma, St. Louis, Mo., and trifluoroacetic acid (TFA) was from Pierce, Rockford, Ill. Radiolabeled rPTH(1-34) and PTHrP(1-36) were prepared by the chloramine-T method, followed by HPLC purification using a 30-50% ACN/0.1% TFA gradient over 30 minutes; radioreceptor assays were performed in 24-well plates as previously described (Gardella, T. J., et al., J. Biol. Chem. 271:19888-19893 (1996); Fukayama, S. et al., Endocrinology 134:1851-1858 (1994)). In brief, each well (final volume 500 μl) contained binding buffer (BB; 50 mM Tris-HCl (pH 7.7), 100 mM NaCl, 5 mM KCl, 2 mM CaCl2, 5% heat-inactivated horse serum, and 0.5% heat-inactivated fetal bovine serum), the ^125I-labeled PTH or PTHrP analog (100,000 to 200,000 cpm) was incubated in the absence or presence of increasing concentrations of unlabeled peptides. After 4 h at 16° C., buffer was completely removed, the cells were rinsed with cold BB and lysed with 1 M NaOH. The entire lysate was counted for γ-irradiation. Specific binding was determined after subtracting radioactivity bound in the presence of maximal concentrations of unlabeled competing peptide (10^−6 M). Agonist-dependent stimulation of cAMP accumulation by HKrk-B7 and SaOS-2 cells (48-well plates; stimulation at room temperature for 45 minutes) and the subsequent measurement of cAMP by radioimmunoassay was performed as previously described (Gardella, T. J., et al., J. Biol. Chem. 271:19888-19893 (1996); Bergwitz, C., et al., Endocrinology 139:723-732 (1998)). Data were analyzed and graphically illustrated using the graph-pad prism software package.
The values for EC50 and Vmax (mean±SE) are derived from at least three independent experiments.

human PTH2 receptor [2] = target: T2, human PTH2 receptor (Homo sapiens, UniProt P49190); test: Inhibition of agonist-stimulated cAMP accumulation in hPR2-20 LLCPK1 cells; assay type: cell-based
T2 construct: expressed in transfected cells
Description: FIG. 8. […] Data are expressed as % of half-maximal cAMP accumulation and represent the results (mean±SE) of at least three independent experiments.

PTH1R [3] = target: T1, PTH1R; test: Inhibition of agonist-stimulated cAMP accumulation in SaOS-2 cells; assay type: cell-based; design: expressed in transfected cells; conditions: SaOS-2 cells (stated for both cell lines); agonists 0.15-0.3 nM
Description: FIG. 4A-4F. Inhibition of agonist-stimulated cAMP accumulation in HKrk-B7 cells (FIG. 4A-4C) or SaOS-2 cells (FIG. 4D-4F). […] Data are expressed as % of half-maximal cAMP accumulation and represent the results (mean±SE) of at least three independent experiments.
Na^125I (specific activity: 2,000 Ci/mmol) was purchased from DuPont/NEN, Boston, Mass. Fetal bovine serum, 3-isobutyl-1-methyl-xanthine (IBMX), and BSA were from Sigma, St. Louis, Mo., and trifluoroacetic acid (TFA) was from Pierce, Rockford, Ill. Radiolabeled rPTH(1-34) and PTHrP(1-36) were prepared by the chloramine-T method, followed by HPLC purification using a 30-50% ACN/0.1% TFA gradient over 30 minutes; radioreceptor assays were performed in 24-well plates as previously described (Gardella, T. J., et al., J. Biol. Chem. 271:19888-19893 (1996); Fukayama, S. et al., Endocrinology 134:1851-1858 (1994)). […] The entire lysate was counted for γ-irradiation. Specific binding was determined after subtracting radioactivity bound in the presence of maximal concentrations of unlabeled competing peptide (10^−6 M). […] Data were analyzed and graphically illustrated using the graph-pad prism software package.

human PTH2 receptor [4] = target: T2, human PTH2 receptor; test: Ligand-stimulated cAMP accumulation in hPR2-20 LLCPK1 cells; assay type: cell-based
[5] = target: T3, human PTH/PTHrP receptor (PTH1R) (human, UniProt Q03431 27-593); test: radioreceptor competition on HKrk-B7 cells, 125I-rPTH(1-34) or 125I-PTHrP(1-36)
T3 construct: whole, on cells; HKrk-B7 cells about 10^6 receptors/cell; SaOS-2 about 30,000 receptors/cell; also called hPTH-1 receptor; PTH-1 receptor
T3 sequence (looked up): T1 sequence (Q03431 27-593)
Experimental: (§1) Na¹²⁵I (specific activity: 2,000 Ci/mmol) was purchased from DuPont/NEN, Boston, Mass. Fetal bovine serum, 3-isobutyl-1-methyl-xanthine (IBMX), and BSA were from Sigma, St. Louis, Mo., and trifluoroacetic acid (TFA) was from Pierce, Rockford, Ill. […] After 4 h at 16° C., buffer was completely removed, the cells were rinsed with cold BB and lysed with 1 M NaOH. The entire lysate was counted for γ-irradiation. Specific binding was determined after subtracting radioactivity bound in the presence of maximal concentrations of unlabeled competing peptide (10⁻⁶ M). Agonist-dependent stimulation of cAMP accumulation by HKrk-B7 and SaOS-2 cells (48-well plates; stimulation at room temperature for 45 minutes) and the subsequent measurement of cAMP by radioimmunoassay was performed as previously described (Gardella, T. J., et al., J. Biol. Chem. 271:19888-19893 (1996); Bergwitz, C., et al., Endocrinology 139:723-732 (1998)). Data were analyzed and graphically illustrated using the graph-pad prism software package.

[6] = target: T3, human PTH/PTHrP receptor (PTH1R); test: radioreceptor competition on HKrk-B7 cells; tracer 125I-[Tyr36]PTHrP(1-36)amide
Experimental: as §1

[7] = target: T3, human PTH/PTHrP receptor (PTH1R); test: radioreceptor competition on HKrk-B7 cells; tracer 125I-rat [Nle8,21,Tyr34]PTH(1-34)amide
Experimental: as §1

[8] = target: T3, human PTH/PTHrP receptor (PTH1R); test: radioreceptor competition on HKrk-B7 cells; either tracer
Experimental: (§2) Specific binding was determined after subtracting radioactivity bound in the presence of maximal concentrations of unlabeled competing peptide (10⁻⁶ M). Agonist-dependent stimulation of cAMP accumulation by HKrk-B7 and SaOS-2 cells (48-well plates; stimulation at room temperature for 45 minutes) and the subsequent measurement of cAMP by radioimmunoassay was performed as previously described (Gardella, T. J., et al., J. Biol. Chem. 271:19888-19893 (1996); Bergwitz, C., et al., Endocrinology 139:723-732 (1998)). Data were analyzed and graphically illustrated using the graph-pad prism software package.

[9] = target: T3, human PTH/PTHrP receptor (PTH1R); test: radioreceptor competition on HKrk-B7 cells
Experimental: as §2

T2 sequence (P49190 25-550): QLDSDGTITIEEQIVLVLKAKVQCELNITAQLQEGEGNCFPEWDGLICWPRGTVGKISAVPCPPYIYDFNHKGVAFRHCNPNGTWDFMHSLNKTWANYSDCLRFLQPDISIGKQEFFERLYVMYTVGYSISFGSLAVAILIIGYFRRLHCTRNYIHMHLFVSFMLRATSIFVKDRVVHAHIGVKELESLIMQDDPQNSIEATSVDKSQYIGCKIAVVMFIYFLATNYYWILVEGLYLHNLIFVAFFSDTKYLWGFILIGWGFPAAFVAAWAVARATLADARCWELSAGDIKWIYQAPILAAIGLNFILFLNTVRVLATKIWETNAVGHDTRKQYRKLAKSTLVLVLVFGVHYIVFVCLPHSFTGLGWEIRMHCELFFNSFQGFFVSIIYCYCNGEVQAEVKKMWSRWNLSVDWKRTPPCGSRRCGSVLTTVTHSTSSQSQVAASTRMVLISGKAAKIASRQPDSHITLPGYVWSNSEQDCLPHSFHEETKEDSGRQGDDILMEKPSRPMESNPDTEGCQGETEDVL

`CSCC[C@H](NC(=O)[C@H](Cc1ccc(O)cc1)NC(=O)[C@H](CO)NC(=O)[C@H](CC(N)=O)NC(=O)[C@H](CC(C)C)NC(=O)[C@H](Cc1c[nH]c2ccccc12)NC(=O)[C@H](Cc1c[nH]cn1)NC(=O)[C@H](CCCNC(=N)N)NC(=O)[C@H](CCCNC(=N)N)NC(=O)[C@H](CCC(=O)O)NC(=O)[C@H](CC(C)C)NC(=O)[C@H](C)NC(=O)[C@H](C)NC(=O)[C@H](CC(C)C)NC(=O)[C@H](CC(C)C)NC(=O)[C@H](CCCNC(=N)N)NC(=O)[C@H](C)NC(=O)[C@H](CCCNC(=N)N)NC(=O)[C@H](CCC(=O)O)NC(=O)[C@H](CCCNC(=N)N)NC(=O)[C@H](Cc1ccccc1)NC(=O)[C@H](C)N)C(=O)N[C@@H](Cc1c[nH]cn1)C(=O)N[C@@H](CCCCN)C(=O)N[C@@H](CC(C)C)C(=O)N[C@@H](CC(C)C)C(=O)N[C@H](C(=O)N[C@@H](CC(C)C)C(=O)N[C@@H](CC(=O)O)C(=O)N[C@@H](C)C(=O)N1CCC[C@H]1C(N)=O)C(C)C` [TIP(9-39)] (H-AFRERARLLAALERRHWLNSYMHKLLVLDAP-NH2) was tested, and the “stimulation of cAMP accumulation at the PTH1R (in words)” value (PTH1R [1]) was “lack of second messenger formation; also recorded: failed to stimulate cAMP accumulation”, the “higher antagonist concentration required against human TIP39 than against PTH-(1-34)” value (human PTH2 receptor [2]; 1 nM of either agonist) was “approximately 14 fold” and the “antagonism at the PTH2 receptor (in words)” value (human PTH2 receptor [2]; P2R LLCPK1 cells, FIG. 8) was “antagonist of the PTH2 receptor”. For the same molecule, the “inhibition of agonist actions (in words)” value (PTH1R [3]) was “inhibited the actions of the three agonists”.

With `CSCC[C@H](NC(=O)[C@H](Cc1ccc(O)cc1)NC(=O)[C@H](CO)NC(=O)[C@H](CC(=O)O)NC(=O)[C@H](CC(C)C)NC(=O)[C@H](Cc1c[nH]c2ccccc12)NC(=O)[C@H](CCC(=O)O)NC(=O)[C@H](CCCNC(=N)N)NC(=O)[C@H](CCCNC(=N)N)NC(=O)[C@H](CCC(=O)O)NC(=O)[C@H](CC(C)C)NC(=O)[C@H](C)NC(=O)[C@H](C)NC(=O)[C@H](CC(C)C)NC(=O)[C@H](CC(C)C)NC(=O)[C@H](CCCNC(=N)N)NC(=O)[C@H](C)NC(=O)[C@H](CCCNC(=N)N)NC(=O)[C@H](CCC(=O)O)NC(=O)[C@H](CCCNC(=N)N)NC(=O)[C@H](Cc1ccccc1)NC(=O)[C@H](C)NC(=O)[C@H](C)NC(=O)[C@H](CC(=O)O)NC(=O)[C@H](CC(=O)O)NC(=O)[C@H](C)NC(=O)[C@H](CC(C)C)NC(=O)[C@H](C)NC(=O)[C@H](CC(C)C)NC(=O)[C@@H](N)CO)C(=O)N[C@@H](CCC(N)=O)C(=O)N[C@@H](CCCCN)C(=O)N[C@@H](CC(C)C)C(=O)N[C@@H](CC(C)C)C(=O)N[C@@H](CC(C)C)C(=O)N[C@@H](CC(C)C)C(=O)N[C@@H](CC(=O)O)C(=O)N[C@@H](C)C(=O)N1CCC[C@H]1C(N)=O` [mouse TIP39] (H-SLALADDAAFRERARLLAALERREWLDSYMQKLLLLDAP-NH2) the “maximum cAMP accumulation” value (human PTH2 receptor [4]) was 133.7±3.9 pmol/well.

ALERRHWLNSYMHKLLVLDAP [TIP(19-39)]: no binding [5].

RHWLNSYMHKLLVLDAP [TIP(23-39)]: no binding [5].

For ALADDAAFRERARLLAALERRHWLNSYMHKLLVLDAP (not fully specified (C-terminus)) [TIP(3-39)], the IC50 [6] was 68 nM, the IC50 [7] was 96 nM and the “fold improvement in apparent binding affinity relative to TIP(1-39)” value [8] was ≤ 6 fold. The “fold higher apparent binding affinity in comparison to the parent peptide TIP(1-39)” value [9] was ~3 fold.
